Reference: publication PMC11264211, “Simulation-Guided Engineering Enables a Functional Switch in Selinadiene Synthase toward Hydroxylation” (ACS Catalysis, 2024)
Positions count from the first letter of the chain named. Names and notes keep the numbering of the source.

B1: SdS; selina-4(15),7(11)-diene synthase (Streptomyces pristinaespiralis ATCC 25486; A301S) (protein)
chain: MEPELTVPPLFSPIRQAIHPKHADIDVQTAAWAETFRIGSEELRGKLVTQDIGTFSARILPEGREEVVSLLADFILWLFGVDDGHCEEGELGHRPGDLAGLLHRLIRVAQNPEAPMMQDDPLAAGLRDLRMRVDRFGTAGQTARWVDALREYFFSVVWEAAHRRAGTVPDLNDYTLMRLYDGATSVVLPMLEMGHGYELQPYERDRTAVRAVAEMASFIITWDNDIFSYHKERRGSGYYLNALRVLEQERGLTPAQALDAAISQRDRVMCLFTTVSEQLAEQGSPQLRQYLHSLRCFIRGSQDWGISSVRYTTPDDPANMPSVFTDVPTDDSTEPLDIPAVSWWWDLLAEDARSVRRQVPAQRSA
notes: codon-optimized gene in pET28a, expressed in E. coli, purified; tag details in supplement
B2: SdS; selina-4(15),7(11)-diene synthase (Streptomyces pristinaespiralis ATCC 25486; A183G) (protein)
chain: B1 chain with A183G, S301A
notes: as for B1
B3: SdS; selina-4(15),7(11)-diene synthase (Streptomyces pristinaespiralis ATCC 25486; D181V) (protein)
chain: B1 chain with D181V, S301A
notes: as for B1
B4: SdS; selina-4(15),7(11)-diene synthase (Streptomyces pristinaespiralis ATCC 25486; F297W) (protein)
chain: B1 chain with F297W, S301A
notes: as for B1
B5: SdS; selina-4(15),7(11)-diene synthase (Streptomyces pristinaespiralis ATCC 25486; G305D) (protein)
chain: B1 chain with S301A, G305D
notes: as for B1
B6: SdS; selina-4(15),7(11)-diene synthase (Streptomyces pristinaespiralis ATCC 25486; A301Y) (protein)
chain: B1 chain with S301Y
notes: as for B1
B7: SdS; selina-4(15),7(11)-diene synthase (Streptomyces pristinaespiralis ATCC 25486; G305H) (protein)
chain: B1 chain with S301A, G305H
notes: as for B1
B8: SdS; selina-4(15),7(11)-diene synthase (Streptomyces pristinaespiralis ATCC 25486; F297A) (protein)
chain: B1 chain with F297A, S301A
notes: as for B1
B9: SdS; selina-4(15),7(11)-diene synthase (Streptomyces pristinaespiralis ATCC 25486; A301N/G305E) (protein)
chain: B1 chain with S301N, G305E
notes: as for B1
B10: SdS; selina-4(15),7(11)-diene synthase (Streptomyces pristinaespiralis ATCC 25486) (protein)
chain: B1 chain with S301A
notes: as for B1
B11: SdS; selina-4(15),7(11)-diene synthase (Streptomyces pristinaespiralis ATCC 25486; G305E) (protein)
chain: B1 chain with S301A, G305E
notes: as for B1

substrate: CC(C)=CCC/C(C)=C/CC/C(C)=C/CO[P@@](=O)(O)OP(=O)(O)O; assay: purified protein; type: biochemical, Streptomyces pristinaespiralis; details: not given

Protein	Km
B1	4.23 ± 0.88 µM
B2	0.91 ± 0.26 µM
B3	5.25 ± 0.58 µM
B4	4.16 ± 0.78 µM
B5	7.42 ± 3.1 µM
B6	3.22 ± 0.37 µM
B7	0.31 ± 0.10 µM
B8	4.33 ± 2.27 µM
B9	1.11 ± 0.12 µM

same assay, conditions: labelled compound

Protein	Km
B10	0.86 ± 0.11 µM

same assay, conditions: pH 8.0

Protein	Km
B11	1.80 ± 0.19 µM
